From the Human Domainome abundance scans (Beltran et al. 2025)
± gives the uncertainty stated by the source.

B1: Triacylglycerol hydrolase DDHD2, residues 389 to 447; numbered along this chain, O94830 (parent)
chain: TLEEDLKKLQLSEFFDIFEKEKVDKEALALCTDRDLQEIGIPLGPRKKILNYFSTRKNS

Variants of: B1
Assay: abundance fitness (aPCA) (normalised: wild type 0, dead -1); higher = more abundant; growth selection in yeast, the domain comes from the species named
Details: Homo sapiens

Row | Variant | abundance fitness
1 | TLEEDLKKLQLSEFFDIFHKEKVDKEALALCTDRDLQEIGIPLGPRKKILNYFSTRKNS [E19H] | -0.024 ± 0.12
2 | TLEEDLKKLQLSEFFDIFNKEKVDKEALALCTDRDLQEIGIPLGPRKKILNYFSTRKNS [E19N] | -0.187 ± 0.12
3 | TLEEDLKKLQLSEFFDIFSKEKVDKEALALCTDRDLQEIGIPLGPRKKILNYFSTRKNS [E19S] | -0.054 ± 0.067
4 | TLEEDLKKLQLSEFFDIFFKEKVDKEALALCTDRDLQEIGIPLGPRKKILNYFSTRKNS [E19F] | -0.082 ± 0.11
5 | TLEEDLKKLQLSEFFDIFEKEKVDKEALALCTDRDLQEIGIPLHPRKKILNYFSTRKNS [G44H] | 0.101 ± 0.059
6 | TLEEDLKKLQLSEFFDIFEKEKVDKEALALCTDRDLQEIGIPLCPRKKILNYFSTRKNS [G44C] | -0.176 ± 0.055
7 | TLEEDLKKLQLSEFFDIFEKEKVDKEALALCTDRDLQEIGIPLGPRKKILNYFSTMKNS [R56M] | 0.095 ± 0.092
8 | TLEEDLKKLQLSEFFDIFEKEKVDKEALALCTDRDLQEIGIPLGMRKKILNYFSTRKNS [P45M] | 0.019 ± 0.11
9 | TLEEDLKKLQLSEFFDIFEKEKVDKEALALCTDRDLQEIGIPLGYRKKILNYFSTRKNS [P45Y] | -0.426 ± 0.084
10 | TLEEDLKKLQLSEFFDIFEKEKVDKEALALCTDRDLQEIGIPLGQRKKILNYFSTRKNS [P45Q] | 0.188 ± 0.1
11 | TLEEDLKKLQLSEFFDIFEKEQVDKEALALCTDRDLQEIGIPLGPRKKILNYFSTRKNS [K22Q] | -0.247 ± 0.11
12 | TLEEDLKKLQLLEFFDIFEKEKVDKEALALCTDRDLQEIGIPLGPRKKILNYFSTRKNS [S12L] | -0.104 ± 0.054
13 | TLEEDLGKLQLSEFFDIFEKEKVDKEALALCTDRDLQEIGIPLGPRKKILNYFSTRKNS [K7G] | -0.056 ± 0.089
14 | TLEEDLNKLQLSEFFDIFEKEKVDKEALALCTDRDLQEIGIPLGPRKKILNYFSTRKNS [K7N] | -0.153 ± 0.22
15 | TLEEDLKKLQLSEFFDIFEKEKVDKEALALCTDRDLQEIGIPLGPRRKILNYFSTRKNS [K47R] | -0.065 ± 0.064
16 | TLEEDLKKLQLSEFFSIFEKEKVDKEALALCTDRDLQEIGIPLGPRKKILNYFSTRKNS [D16S] | -0.057 ± 0.056
17 | TLEEDLKKLQLSEFFDIFEFEKVDKEALALCTDRDLQEIGIPLGPRKKILNYFSTRKNS [K20F] | -0.524 ± 0.15
18 | TLEEDLKKLQLSEFFDIFETEKVDKEALALCTDRDLQEIGIPLGPRKKILNYFSTRKNS [K20T] | -0.104 ± 0.09
19 | TLEEDLKKLQLSEFHDIFEKEKVDKEALALCTDRDLQEIGIPLGPRKKILNYFSTRKNS [F15H] | -0.084 ± 0.18
20 | TLEEDLKKLQLSEFFDIAEKEKVDKEALALCTDRDLQEIGIPLGPRKKILNYFSTRKNS [F18A] | -0.134 ± 0.074
21 | TLEEDLKKLQLSEFFDIHEKEKVDKEALALCTDRDLQEIGIPLGPRKKILNYFSTRKNS [F18H] | -0.533 ± 0.22
22 | TLEEDLKKLQLSEFFDINEKEKVDKEALALCTDRDLQEIGIPLGPRKKILNYFSTRKNS [F18N] | -0.197 ± 0.12
23 | TLEEDLKKLQLSEFFDIEEKEKVDKEALALCTDRDLQEIGIPLGPRKKILNYFSTRKNS [F18E] | -0.508 ± 0.15

Row | Variant | abundance fitness
24 | TLEEDLKKLQLSEFFDIVEKEKVDKEALALCTDRDLQEIGIPLGPRKKILNYFSTRKNS [F18V] | -0.45 ± 0.083
25 | TLEEDLKKLQLSEFFDIFEKEKVDKEALALCTDRELQEIGIPLGPRKKILNYFSTRKNS [D35E] | 0.197 ± 0.073
26 | TLEEDLKKLQLSEFFDIFEKEKVDKEALALCTDRILQEIGIPLGPRKKILNYFSTRKNS [D35I] | -1.13 ± 0.19
27 | TLEEDLKKLQLSEFFDIFEKEKVDKEALALCTDRRLQEIGIPLGPRKKILNYFSTRKNS [D35R] | 0.053 ± 0.07
28 | TLEEDLKKLQLSEFFDIFEKEKVDKEALALCTDRYLQEIGIPLGPRKKILNYFSTRKNS [D35Y] | 0.207 ± 0.12
29 | TLEEDLKKLQLSEFFDIFEKEKVDKEALALWTDRDLQEIGIPLGPRKKILNYFSTRKNS [C31W] | 0.44 ± 0.08
30 | TLEEDLKKLQLSEFFDIFEKEKVDKEALALCTDRDLQEIGIPLGPRKKILKYFSTRKNS [N51K] | 0.044 ± 0.097
31 | TLEEDLKKLQLSEFFDIFEKEKVDKEALALCTDRDLQEIGIPLGPRKKILEYFSTRKNS [N51E] | 0.18 ± 0.094
32 | TLEEDLKKLQLSEFFDIFEKEKVDKEALALCTDRDSQEIGIPLGPRKKILNYFSTRKNS [L36S] | -0.293 ± 0.07
33 | TLEEDLKKLQLSEFFDIFEKEKVDKEALALCTDRDLQEIGIPLGPRKKILNYRSTRKNS [F53R] | -0.323 ± 0.069
34 | TLEEDLKKLQLSEFFDIFEKEKVDKEALALCTDRDLQEIGIPLGPRKKILNYLSTRKNS [F53L] | -0.324 ± 0.078
35 | TLEEDLKKLQLSEFFDIFEKEKVDKEALALCTDRDLQEIGIPLGPRKKILNYSSTRKNS [F53S] | -0.237 ± 0.088
36 | TLEEDLKKLQLSEFFDIFEKEKVDKEALALCTDRDLQEIGWPLGPRKKILNYFSTRKNS [I41W] | -0.831 ± 0.11
37 | TLEEDLKKLQLSEFFDIFEKEKVRKEALALCTDRDLQEIGIPLGPRKKILNYFSTRKNS [D24R] | -0.396 ± 0.096
38 | TLEEDWKKLQLSEFFDIFEKEKVDKEALALCTDRDLQEIGIPLGPRKKILNYFSTRKNS [L6W] | -0.45 ± 0.11
39 | TLEEDQKKLQLSEFFDIFEKEKVDKEALALCTDRDLQEIGIPLGPRKKILNYFSTRKNS [L6Q] | -0.336 ± 0.17
40 | TLEEDSKKLQLSEFFDIFEKEKVDKEALALCTDRDLQEIGIPLGPRKKILNYFSTRKNS [L6S] | -0.767 ± 0.13
41 | TLEEDLKKLQLSEFFDIFEKEKVDKEALALCTSRDLQEIGIPLGPRKKILNYFSTRKNS [D33S] | -0.235 ± 0.07
42 | TLEEDLKKLQLSEFFDIFEKEKVDKEALALCTCRDLQEIGIPLGPRKKILNYFSTRKNS [D33C] | -0.675 ± 0.14
43 | TLEEDLKKLQLSEFFDIFEKEKVDKEALALCTDRDLQEIGIPCGPRKKILNYFSTRKNS [L43C] | 0.47 ± 0.056
44 | TLEEDLKKLQLSEFFDIFEKEKVDKEALALCTDRDLQEIGIPYGPRKKILNYFSTRKNS [L43Y] | 0.473 ± 0.053
45 | TLEEDLKKLQLSEFFDIFEKEKVDKEALALCTDRDLQEIGIPMGPRKKILNYFSTRKNS [L43M] | 0.298 ± 0.076
